The text below walks through data of US9266939B2, “Compositions comprising natriuretic peptides and methods of use thereof” (Alexion Pharmaceuticals, Inc., priority 2010, dated 2016).

The series in a line: In vivo pharmacokinetic study of NC2st administered IV or SC in C57BL/6 mice. Conditions: male mice; for AUClast: 20 mg/kg single dose, serum. On the procedure: NC2st was formulated at a concentration of 5.79 mg/mL in 25 mM sodium phosphate pH 7.4, 150 mM NaCl. The animals received NC2st as a single IV or SC dose (20 mg/kg) as described in Table 3 below. Injections were scheduled between 7:00 and 10:15 AM. Each mouse was injected with test article subcutaneously into the scapular region or immobilized in a rodent restrainer and injected with the test article as an intravenous bolus via the caudal vein. […] The animals received only one dose before scheduled blood collection and sacrifice. Individual body weights were assessed before scheduled test article injection and the volume of test article administered was based on body weight determination. Blood samples (0.1 to 0.12 mL) were collected via a jugular vein under isoflurane anesthesia at different time points. At the last time point, blood samples were collected by cardiac puncture under isoflurane anesthesia. Blood samples were collected into Microvette 200Z/gel tube (Sarstedt, serum/gel clotting activator, #20.1291), incubated at room temperature for 30 to 60 minutes, and centrifuged at 10,000×g for five minutes at 2-8° C. Serum was then transferred into a fresh 0.5 mL tube (Sarstedt, #72.699), snap-frozen in liquid nitrogen, and stored at -80° C. until analysis. […] Formulated NC2st protein spiked in serum served as a standard. Pharmacokinetic profiles were derived from the concentration measured by EIA. A non-compartmental analysis (NCA) was used to calculate the pharmacokinetic parameters of testing compound. […] NCA Model 200 was selected for extravascular input or Model 201 for IV-Bolus input using sparse sampling analysis module for both models. The following non-compartmental PK parameters were calculated: • Area under the curve from time zero to the last detectable concentration (AUClast), calculated using the linear trapezoidal (linear interpolation); • Area under the curve from time zero to infinity (AUC∞) calculated [NT]λz (where λz=slope of the terminal phase of the serum concentration vs time curve); • Maximum observed serum concentration (Cmax), time of maximum serum concentration (Tmax); • Terminal elimination half-life (T1/2, calculated as 0.693/λz); • Systemic clearance (CL) was calculated as Dose/AUC∞ and • Total volume of distribution (Vss) was calculated using CL×MRT, where MRT is the mean residence time. Absolute bioavailability (F %) between routes was calculated using the following formula: [AUC∞ (sc)/Dose(sc)]/[AUC∞ (iv)/Dose(iv)]×100. Nominal times were used in the calculations and times are set relative to start of dosing. Nominal doses were used for the calculation of CL.

For the substance “NC2st: Fc-CNP fusion: Strep-tag II, TEV site, human IgG-1 Fc, 16-amino acid glycine-rich linker, CNP22; SEQ ID NO: 502”, under “IV, 20 mg/kg”, the “AUC∞” value is reported as 28,563 hr · nmol/L, the CL is 0.0112 L/h/kg, the peak level (Cmax) was 2.1 µM and the Half-life stood at 10.6 h. Besides, where the note is “IV, 20 mg/kg”, the Tmax was 1.00 h and the Vss is 0.173 L/kg. For the same substance, the AUClast (IV) was 27,587 hr · nmol/L. Moreover, where the note is “SC”, the “increase of SC half-life over intravenous CNP22” value is “approximately 340 fold” and the AUClast is recorded as 17,735 hr · nmol/L. The Bioavailability (SC vs IV, 20 mg/kg) was 68.5%. Moreover, under “SC, 20 mg/kg”, the “AUC∞” value is 19,592 hr · nmol/L, the CL_F is 0.0163 L/h/kg, the highest level (Cmax) was 0.798 µM and the Half-life was 14.3 h. For the same substance, where the note is “SC, 20 mg/kg”, the Tmax is 6.00 h and the Vss_F was found to be 0.353 L/kg.
